Measured values: the RNAGym collection of RNA variant scans (doi:10.7554/elife.80360)

B1: Hammerhead Ribozyme (parent)
chain: ACCGGAUGUGCUUUCCGGUCUGAUGAGUCCGUGAGGACGAAACAG

Variants of: B1
Experiment: self-cleavage, relative activity (ratio to wild type); higher = more cleavage; co-transcriptional

| Variant | self-cleavage |
| --- | --- |
| U12G A42C | 0.239 |
| U13C G18C | 0.842 |
| U13C G18U | 0.933 |
| U13C G18A | 0.955 |
| U13A G31C | 1.39 |
| U13A G31U | 1.39 |
| U13A G31A | 1.46 |
| U13G C38G | 0.531 |
| U13G C38A | 0.434 |
| U13G C38U | 0.724 |
| U13C A26G | 0.313 |
| U13C A26U | 0.622 |
| U13C A26C | 0.782 |
| U13C U32C | 1.11 |
| U13C U32A | 0.668 |
| U13C U32G | 0.808 |
| U13C A44U | 0.923 |
| U13C A44C | 0.491 |
| U13C A44G | 1.49 |
| U13C C29G | 0.723 |
| U13C C29U | 0.819 |
| U13C C29A | 0.789 |
| U12G C38G | 0.813 |
| U12G C38A | 0.711 |

| Variant | self-cleavage |
| --- | --- |
| U12G C38U | 1.08 |
| U12G G25C | 0.337 |
| U12G G25U | 0.315 |
| U12G G25A | 0.316 |
| U13C G31U | 1.22 |
| U13C G31A | 1.04 |
| U13C G31C | 1.13 |
| U13A G39U | 0.339 |
| U13A G39A | 0.317 |
| U13A G39C | 0.341 |
| U13C | 1.12 |
| U13A | 1.31 |
| U13G | 0.924 |
| U13C A41G | 0.394 |
| U13C A41C | 0.247 |
| U13C A41U | 0.362 |
| U13C G22U | 0.346 |
| U13C G22A | 0.243 |
| U13C G22C | 0.247 |
| U13A G33A | 1.29 |
| U13A G33U | 1.46 |
| U13A G33C | 1.25 |
| U13C G27A | 1.09 |
| U13C G27U | 0.673 |

| Variant | self-cleavage |
| --- | --- |
| U13C G27C | 0.985 |
| U12G G18A | 0.583 |
| U12G G18U | 0.998 |
| U12G G18C | 0.61 |
| U13C U28C | 1.29 |
| U13C U28G | 0.935 |
| U13C U28A | 0.739 |
| U12G A37U | 0.438 |
| U13G A40C | 0.454 |
| U13G A40G | 0.281 |
| U13G A40U | 0.303 |
| U13A A26C | 0.564 |
| U13A A26G | 0.327 |
| U13A A26U | 0.976 |
| U13G G17A | 0.876 |
| U13G G17U | 0.78 |
| U13G G17C | 0.572 |
| U13C A23C | 0.373 |
| U13C A23G | 0.419 |
| U13C A23U | 0.237 |
| U12G A41G | 0.339 |
| U12G A41U | 0.298 |
| U12G A41C | 0.276 |
| U12G G35A | 0.674 |

| Variant | self-cleavage |
| --- | --- |
| U12G G35U | 0.583 |
| U12G G35C | 0.444 |
| U12G U19G | 0.509 |
| U12G U19C | 0.524 |
| U12G U19A | 0.299 |
| U13A G45U | 1.02 |
| U13A G45C | 0.808 |
| U13A G45A | 0.883 |
| U13A G17C | 0.815 |
| U13A G17U | 1.02 |
| U13A G17A | 1.16 |
| U12G A44C | 0.499 |
| U12G A44U | 0.565 |
| U12G A44G | 1.57 |
| U13G C30U | 0.786 |
| U13G C30A | 0.933 |
| U13G C30G | 0.593 |
| U12G C29U | 0.541 |
| U12G C29A | 0.643 |
| U12G C29G | 0.736 |
| U13C U19A | 0.351 |
| U13C U19G | 0.311 |
| U13C U19C | 0.877 |
| U13G C20A | 0.374 |

| Variant | self-cleavage |
| --- | --- |
| U13G C20U | 0.435 |
| U13G C20G | 0.244 |
| U13G A23U | 0.405 |
| U13G A23C | 0.356 |
| U13G A23G | 0.368 |
| U13A G27A | 0.873 |
| U13A G27C | 0.823 |
| U13A G27U | 0.53 |
| U13A C29U | 0.941 |
| U13A C29A | 0.759 |
| U13A C29G | 0.922 |
| U13G C15G | 0.715 |
| U13G C15U | 0.763 |
| U13G C15A | 0.701 |
| U13A A41C | 0.368 |
| U13A A41G | 0.311 |
| U13A A41U | 0.355 |
| U12G G39A | 0.4 |
| U12G G39C | 0.424 |
| U12G G39U | 0.319 |
| U12G U24A | 1.13 |
| U12G U24C | 1.18 |
| U12G U24G | 0.795 |
| U13A U28C | 1.58 |

| Variant | self-cleavage |
| --- | --- |
| U13A U28G | 1.4 |
| U13A U28A | 1.1 |
| U13G C29U | 0.82 |
| U13G C29A | 0.595 |
| U13G C29G | 0.581 |
| U13C C20A | 0.573 |
| U13C C20G | 0.293 |
| U13C C20U | 0.405 |
| U13A C38G | 0.728 |
| U13A C38A | 0.808 |
| U13A C38U | 1.5 |
| U12G C30A | 0.795 |
| U12G C30G | 0.706 |
| U12G C30U | 0.983 |
| U13A A42C | 0.314 |
| U13A A42G | 0.344 |
| U13A A42U | 0.339 |
| U13C U21G | 0.864 |
| U13C U21C | 1.23 |
| U13C U21A | 0.754 |
| U13A G35C | 0.799 |
| U13A G35U | 0.727 |
| U13A G35A | 0.89 |
| U12G G27C | 0.433 |

| Variant | self-cleavage |
| --- | --- |
| U12G G27A | 0.914 |
| U12G G27U | 0.411 |
| U12G G45A | 0.719 |
| U12G G45U | 0.716 |
| U12G G45C | 0.676 |
| U13G A44C | 0.567 |
| U13G A44U | 0.644 |
| U13G A44G | 1.7 |
| U13C G36C | 0.336 |
| U13C G36U | 0.598 |
| U13C G36A | 0.701 |
| U13A A37G | 1.15 |
| U13A A37U | 0.908 |
| U13A A37C | 1.21 |
| U13C G25C | 0.264 |
| U13C G25U | 0.367 |
| U13C G25A | 0.395 |
| U13A C20A | 0.446 |
| U13A C20U | 0.681 |
| U13A C20G | 0.354 |
| U13G A34U | 0.976 |
| U13G A34C | 0.79 |
| U13G A34G | 0.886 |
